For three molecules, concentration of cold CRF that competes and Kd results are on record in US5587462, “Brain-derived membrane-associated CRF binding proteins” (The Salk Institute For Biological Studies, dated 1996).

Assay [1] has as its target 35 kD ovine brain-derived membrane-associated CRF-BP (sheep (ovine)). As to the kind of experiment: competition of radiolabeled CRF binding by cold CRF.
Assay [2] deals with 33 kD ovine brain-derived membrane-associated CRF-BP (sheep (ovine)). Described as above.
The target in assay [3] is T1, human Corticotropin-Releasing Factor (hCRF) (human (same molecule in rat), UniProt P06850, 125I-radiolabeled in the binding, cross-linking and LIRMA assays; immobilized on a solid-phase matrix in the affinity chromatography).
T1 peptide: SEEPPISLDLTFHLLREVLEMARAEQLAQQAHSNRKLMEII
Description: binding assay with purified membrane-associated CRF-BP.

For the molecule “Corticotropin-Releasing Factor (CRF), species not stated at the experiment (peptide)”, the concentration of cold CRF that competes in assay [1] and in assay [2] was 1 µM throughout.

B1: 35 kD ovine brain-derived membrane-associated CRF-BP (other)
chain: EAVDHDSFPHLAGGASPKRELEGEPLYRRALRCVDMLSLQGQFTFTADRRQLHCATFFIAEPEEFITIHYDLVSIDCLRGDILQVFDGWILKGEKFPSSQDHPLPTTERYVDFCDSGLSRRSIRSSQNVAMIFFRVHEPGNGFTITVKTEPNLFPCNIISQTPNGRFTLVMPHQHRNCSFSIIYPVAIKISDLTLGHLNGLQLKKSSAGCGGIGDFVELLGGTGLDPSKMLLLADLCYPLRGPAQMKVGCDHTVLRMVSSGKLLNRVTFEYRKLEPYELENPNGNSIQEFCLSTL
As for B1, the Kd (in general, the free concentration of one partner at which half of the binding sites on the other are occupied at equilibrium, for simple one-to-one binding) in assay [3] was 7.5 nM. This lies in the single-digit nanomolar range.

B2: 33 kD ovine brain-derived membrane-associated CRF-BP (other)
chain: ELEGEPLYRRALRCVDMLSLQGQFTFTADRRQLHCATFFIAEPEEFITIHYDLVSIDCLRGDILQVFDGWILKGEKFPSSQDHPLPTTERYVDFCDSGLSRRSIRSSQNVAMIFFRVHEPGNGFTITVKTEPNLFPCNIISQTPNGRFTLVMPHQHRNCSFSIIYPVAIKISDLTLGHLNGLQLKKSSAGCGGIGDFVELLGGTGLDPSKMLLLADLCYPLRGPAQMKVGCDHTVLRMVSSGKLLNRVTFEYRKLEPYELENPNGNSIQEFCLSTL
Molecule B2 registered a dissociation constant (Kd) in assay [3] of 0.25 nM.
